Data as given in article PMC6715741, “Abundant neuroprotective chaperone Lipocalin-type prostaglandin D synthase (L-PGDS) disassembles the Amyloid-β fibrils” (Scientific Reports, 2019).

Biological target: Amyloid β (1–40) peptide, unlabeled, monomeric (UniProt P05067 672-711)
Experiment: cell-based or functional assay

Sequence of Amyloid β (1–40) peptide, unlabeled, monomeric (P05067 672-711): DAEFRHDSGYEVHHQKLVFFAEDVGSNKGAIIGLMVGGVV

B1: Human wild-type Lipocalin-type prostaglandin D synthase (L-PGDS) (natural protein, UniProt P41222 23-190, looked up)
chain: APEAQVSVQPNFQQDKFLGRWFSAGLASNSSWLREKKAALSMCKSVVAPATDGGLNLTSTFLRKNQCETRTMLLQPAGSLGSYSYRSPHWGSTYSVSVVETDYDQYALLYSQGSKGPGEDFRMATLYSRTQTPRAELKEKFTAFCKAQGFTEDTIVFLPQTDKCMTEQ
modifications: uniformly 15N labeled in the NMR titration with unlabeled Aβ40; unlabeled elsewhere
B1 was tested, and the “IC50 of WT-L-PGDS for Aβ40 aggregation (ThT end-point fluorescence, 50 µM Aβ40, 37 °C)” value was 980 nM, the “fold reduction of the primary nucleation rate constant of Aβ40 aggregation with L-PGDS (ThT curves fitted with Amylofit)” value was 14 fold and the “fold reduction of the secondary nucleation rate constant of Aβ40 aggregation with L-PGDS (ThT curves fitted with Amylofit)” value was 6 fold.
